Data taken from the nanobody polyreactivity screen of Harvey et al. (2022).

Test: yeast display, Sf9 membrane polyspecificity reagent, FACS + sequencing; frameworks hold sequencing errors
Method in brief: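 Nanobodies from a synthetic yeast display library (Saccharomyces cerevisiae BJ5465), induced 36–48 hours with galactose, were stained 1 hour at 4 °C with 10% biotinylated, detergent-solubilized Sf9 membrane reagent, enriched on streptavidin microbeads, then FACS-sorted. Anti-HA (expression) and streptavidin (reagent binding) fluorescence set low and high (top ~1%) gates. Polyreactivity labels come from the gate of origin. Genes were colony-PCR amplified, MiSeq 2 × 250 sequenced and filtered by CDR length.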

Sequence	polyreactivity (PSR sort gate)
QVQLVESGGGLVQAGGSLRLSCAASGRIFSNNAMGWYRQAPGNERELVAAISSSGGSTYYADSVKGRFTISRDNAKNTVYLQMNSLKPEDTAVSYCNVGRRKIDDYWGQGTQVTVSS	high polyreactivity
QVQLVESGGGLVLAGGRLRLSCAASGRTFYVYTMGWYRQAPGKEWELVAGISYSGGSTYYADSVMGRFTISRDNAKNTVYLQMNSLKPEDTAVYYCNAELYCPYFDGKTRHGGYWGQGTQVTVSS	low polyreactivity
QVQLVESGGGLVQAGGSLRLSCAASGLIFYYYTMGWYRQAPGKERELVAAITNGGRTNYADSVKGRFTISRDNAKNTVYLQMNSLKPEDTAVYYCNAVVHKYQRGPYYIKYDYWGQGTQVTVSS	high polyreactivity
QVQLVESGGGLVQAGGRLRLSCAASGRIFKTYAMGWYRQAPGKERELVAAISIRGGSTYYAVSVKGRFTISRDNAKNTVYLQMNSLKPEDTAVYYCNALYGRQIVDYDYWGQGTQVTVSS	high polyreactivity
QVQLVESGGGLVQAGGSLRLSCAASGSIIVRYAMGWYRQAPGKERALVATITFRDTSTYYADSVKGRFTITRDNAKNTVYLQMNSLKPEDTAVYYCAAVRADLWDIARYDYWGQGTQVTVSS	low polyreactivity
QVQLVESGGGLVQAGGSLRLSCAASGRIFYSNTMGWYRQAPGKERELVAAISRSGGRTYYADSVKGRFTISRDNAKNTVSLQLNSLKPEDTAVYYCNTAYCRNPYYKGYYWGQGTQVTVSS	high polyreactivity
QVHLVESGGGLVQAGGSLRLSCAASGRTFNRTAMGSYRQAPGKERELVAAMSWRGDSTSYADSVKGRFTISRDNAKNTVYLQMNSLKPADTAVYYCATAHDYAFYRYWYVPSEYYYWGQGTQVTVSW	low polyreactivity
QVQLVESGGGKVQAGGSLRLICAASGSTFSSYAMGWYRQAPGKERELVAGISRGGSSTDYADSVKGRFTISRDNAKNTVYLQMNSLKPEDPAVYYCNAKVWWSFNGLEYDYWGQGTQVTVSS	low polyreactivity
HVQLVESGGGLVQAGGSLRLSCAASGYILDRNAMGWYRQAPGKESELVAVISWGGTRTYYADSVKGRFTISRDNAKNTVYLQMNSLKPEVTAVYYCARYPYYYGYAGRYDYWGQGTQVTVSS	high polyreactivity
QVQLVESGGGLVQAGGSLRLSCAASGSTFRRYAMGWYRQAPGKERELVAGISYSGGRTYYADSVKGRFTISRDNAKNTVYLQMNSLKPEDTAVYYCAAKSFPSVRHHENYYWGQGTQVTVSS	high polyreactivity
QVQLVESGGGLVQAGGSLRLSCAASGGTFPQFAMGWYRQAPGKEREFVADITSRGGTTYYADSVKGRFTISRDNAKNTVYLQMNSLKPEDTAVYYCAADNPADWWGLDYWGQGTQVTVSS	low polyreactivity
QVQLVESGGGLVQAGGSLRLSCAASGSTFNSYAMGWYRQAPWKERELVAAISSTGGNTYYADSVKGRFTISRDNAKNTVYLQMNSLKPEDTAVYYCNARRYGKVVRSRYNYWGQGTQVTVSS	high polyreactivity
QVQLVESGGGLVQAGGSLRLSCAASGRNFGNYAMGGYRQAPGKERELVAAISNGGSTNYADSVKGRVTISRDNAKNTVYFQMNSLKPEDTAVYYCNADQWAVIWGYLVLDFYYWGQGTQVPVSS	low polyreactivity
QVQLVESGGGLVQAGGSLRLSCAASGRTFPLYDMGWYRQAPGKERELVAAISLSGGRTYYADSVKGRFTISRDNAKNTVYLQMNSLKPEDTAVYYCAARGTLSAQVGIRRYDYWGQGTQVTVSS	low polyreactivity
QVQLVESGGGLVQAGGSLRLSCAASGSIFYGNAMGWYRQAPGKERELVAAIDGTGASTYYADSVKGRFTISRDNAKNTVYLQMNSLKPEDTAVYYCNKALTSKDYPVRTVERDYWGQGTQVTVSS	low polyreactivity
QVQLVESGGGLVQAGGSLRLSCAASGFILDFNAMGWYRQAPGKERELVAAISISGVSTYYADSVKGRFTISRDNAKNTVYLQMNSLKPEDTAVYYCAAAQDAAVYWRPGGYDYWGQGTQVTVSS	low polyreactivity
QVQLVESGGGLVQAGGTLRLSCAATGFTFYEYAMGWYRQAPGKERELVAGIRRSGDSTYYADSVKGRFTISRDNAKNTVYLQMNILKPEDTAVYYCAKGWYRIKRNDYWGQGTQVTVSS	low polyreactivity
QVQLVESGGGLVQAGGSLRLSCAASGRTLEIYTMGLNRQAPGKERELVAAISGGSTYYADSVKGRFTISRDNSKNTVYLQMNSLKPEDTAVYYCAARPYVFRYHRWTVDWRYDYWGQGTQVTVSS	low polyreactivity
QVQLVESGGGLVQAGGSLRLSCAASGFTFPGYAMGWYRQAPGNEREFVAAITWSGGRTYYADSVKGRFTISRDNAKNTVYLQMNSLKPEDTAVYYCAAVYRGTWYDYDYWGQGTQVTVSS	high polyreactivity
QVQLVESVGGLVQAGGSLRLSCAASGIIFWWYAIGWYRQAPGKERELVAAINWSGSSTYYADSVKGRFTISRDNAKNTVYLQMKSLKPEDTAVYYCATAGIIQAESEYLSGYDYWGQGTQVTVSS	high polyreactivity
QVQLVESGGGLVQAGGSLRLSFADSGYNFPLYAMGWYIQAPGKERELVADINIGGASTYYADSVKGRFTISRDNAKNTFYLQMNSLKPEDTAVYSCAARDCYQRRQRRYDYWGQGTQVTVSS	low polyreactivity
QVQLVESGGGLVQAGGSLRLSCAASGSIFESYAMGWYRQAPGKERELVAAIDSGDSTYYADSVKGRFTISRDNAKNTVYLQMNSLKPEDTAVYYCAAGYLFLKRIWQSRMDYWGQGTQVTVSS	low polyreactivity

Sequence	polyreactivity (PSR sort gate)
QVQLVESGGGLVQAGGSLRLSCAASGYIFFGNAMGWYRQAPGKERELVAAIRGRGTSTYYADSVKGRFTISRDNAKNTVYLQMNSLKPEDTAVYYFDADVVRSNFYGTFMYDYDYWGQGTQVTVSS	low polyreactivity
QVQLVESGGGLVQAGGSLRLSCAASGSIFAYNAMGWYRQAPGKERELVAAITISGGRTYYADSVKGRFTISRDNAKNTVYLQMNSLKPEDTAVYYCAARYPSGTRKWYGYWGQGTQVTVSS	high polyreactivity
QVQLVESGGGLVQAGGSLRLSCAASGSIFDTYAMGWYRQAPGQERELVAAITSGGSTNYADSVKGRFTISRDNAKNTVYLQMNSLKPEETAVYYCAADAEDRPSWPGNSEYEYWGQGTQVTVSS	low polyreactivity
QVQLVESGGGLVQAGGSLRLSCAASGRILKWYAMGWYRQAPGKERELVAAISARGGSTFYADSVKGRFTISRDNAKNTVYLQMNSLKPEDTAVYYCNTYYRGGPYDVAYDYWGQGTEVTVSS	high polyreactivity
QVQLVESGGGLVQAGGSLRLSCAASGSTFAQNAMGWYRQAPGKEREFVAAITGTVGSTYYADSVKGRFTISRDNAKNTVYLQMNSLKPEDTAVYYCNTRGFNGRVYPYDYWGQGTQVTVSS	low polyreactivity
QVQLVESGGGLVQAGGSLRLSSAASGFIFSTYAMGWYRQAPGKEREFVAAITRTGTRTYYADSVKGRFTISRDNAKNTVYLQMTSLKPEDTAVYYCAARAGVEAYGSRYGYWGQGTQGTVSS	high polyreactivity
QVQLVESVGGLVQAGGSLRLSCAASGYTLGDYAMGWYRQAPGKERELVAVITRNGGRTYYADSVKGRFTISRDNAKNTVYLQMNSLKPEDTAVYYCNRDTSIRHYNYWGQGTQVTVSS	high polyreactivity
QVQLVDSGGGLVQAGGSLRLSCAASGSIFVNNTMGWYRQAPGKERELVAAISSSGGSTYYADSVKGRFTISRDNAKNTVYLQMNSLKPEDTAVYYCAAVNGYQYPQYYYNGYDYWGQGTQVTVSS	low polyreactivity
QVQLVESGGGLVQAGGSLRLSCAASGLIFLYYTMGWYRQAPGKERELVAAISSAGRTNYADSVKGRFTISRDNAKNTVYLQMNSLKPEDTAVYYCNADGGWWARYGYWGQGTQVTVSS	low polyreactivity
QVQLVESGGGLVQAGASLRLICAASGYTSSGYAMGRYRHAPGKERELVAAISADGGSTYYADSVKGRFTISRDNAKNTVYLQMNSLKPEDTAVYYCAKYTYPYTPYSWWYDYWGQGTQVTVSS	low polyreactivity
QVQLVESGGGLVQAGGSLRLSCAASGSIFSIYAMGWYRQAPGKERDFVASITVTDGSTYYADSVKGRFTISRDIAKNTVYLQMNSLKPEDTAVYYCFADGWYALYEWLAVSGYYWGQGTQVTVST	low polyreactivity
QVQLVESGGGLVQAGGILRLSCDASGRIFRANAMGWYRQAPGKERELVASITYSGGSTYYADSVKGRFTISRDNAKNTVYLPMNSLNPEDTAVYYCARAGISSGGYYYWGQGTQVTVSS	low polyreactivity
QVQLVESGAGLVQAGGSLRLSCSASGRTFPGYAMGWYRQAPGKERELVATISSADSTNYADSVKGRFTISRDNGKNTVYLQMNSLKAEDTAVYYCAKRYGRNGAAAQYTGGYRYDYWGQGTQVSVSS	low polyreactivity
QVQLQESGGGLVQAGGSLRLSCAASGYISSWYPMGWYRQAPGKEREFVATIAPGATTYYADSVKGRFTISRDYAKNTVYLQMNSLKPEDTAVYYCAAGPLNNDFYSYWGQGTQVTVSS	low polyreactivity
QVQLVESGGVLVQAGGSLRLSCAASGRIFPSYDMGWYRQAPAKERELVDTISTRGDSTYYADSVKGRFTISRDNAKNTVYLQMNSQKPEDTAVYYCAAERPFWEYDYWGQGTQVTVSS	low polyreactivity
QVQLVESAGGLVQAGGSLRLSCAASGRIFHKNAMGWYRQAPGKERELVATINYGGSSTYYADSVKGRFTISRDNAKNTVYLQMNSLKPEDTAVYYCAAAPEYLTDHAYWGQGTQVTVSS	low polyreactivity
QVQLVESGGGLVQAGGSLRLSCAASGLIFYRNAMGWYRQAPGKERELVAAISKNGGNTYYADSVKGRFTISRDNAKNTVFLQMNSLKTEDTAVYYCAARELYGPFGYWGQGTQVTVSS	high polyreactivity
QVQLVESGGGLVQAGGSLRLSCAASGRIFVRNPMGWYRQAPGKERELVADITNGGSTNYADSVKGRFTISRDNAKNTVYLQMNSLKPEDTAVYYCAATYPYSWVYSGYYYWGQGTQVTVSS	low polyreactivity
QVQLVESGGGLVQAGGSLRLSCAASGIIIRSYAMGWDRQAPGKERELVAAITRSGGSTYADSVKGRFTISRDNAKNTVYLQKNSLKPEDTAVYYCAADRYSGWVYRRDDWGQGTQVPVSS	low polyreactivity
QVQLVESGGGLVQAGGSLRLSCAASGFTFFEDNAMGWYRQAPGKERELVAAITSGGSTNYADSVKGRFTISRDNAKNTVYLQMISLKPEDTAVYYCAKDRVPLKTRFYYFPWGYDYWGQGTQVTVSS	low polyreactivity
QVQLVESGGGLVQAGGSLRLSCAASGRIFQANAKGWYRQAPGKERELVAAINSGDSTYYADSVKGRFTISRDNAKNTVYLQMNSLKPEDTAVYYCAADAVFQYYTYYYWGQGTQVTVSS	low polyreactivity
